Target: T1, Myc-tagged NLRP6 (ΔPYD)
T1 chain: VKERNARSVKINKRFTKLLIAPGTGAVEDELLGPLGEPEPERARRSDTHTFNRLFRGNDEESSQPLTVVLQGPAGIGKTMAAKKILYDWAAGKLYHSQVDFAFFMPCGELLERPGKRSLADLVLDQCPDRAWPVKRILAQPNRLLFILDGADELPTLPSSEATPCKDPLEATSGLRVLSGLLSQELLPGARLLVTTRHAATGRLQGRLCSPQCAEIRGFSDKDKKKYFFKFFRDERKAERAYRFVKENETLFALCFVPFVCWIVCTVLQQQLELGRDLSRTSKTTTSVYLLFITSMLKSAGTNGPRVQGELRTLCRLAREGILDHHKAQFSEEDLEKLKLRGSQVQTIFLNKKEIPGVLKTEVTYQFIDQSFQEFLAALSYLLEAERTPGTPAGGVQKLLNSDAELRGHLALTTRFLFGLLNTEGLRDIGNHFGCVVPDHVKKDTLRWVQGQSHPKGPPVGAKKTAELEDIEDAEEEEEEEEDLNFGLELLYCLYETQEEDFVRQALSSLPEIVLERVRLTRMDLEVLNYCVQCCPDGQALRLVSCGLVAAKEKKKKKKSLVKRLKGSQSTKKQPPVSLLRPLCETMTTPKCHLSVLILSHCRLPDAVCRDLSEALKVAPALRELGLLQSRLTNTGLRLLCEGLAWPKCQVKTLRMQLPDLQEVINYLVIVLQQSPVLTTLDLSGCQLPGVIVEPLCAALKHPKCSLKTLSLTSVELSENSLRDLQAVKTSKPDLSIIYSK

Kd: 88 nM
B1: FLAG-tagged iTie (natural protein)
chain: MGVFQILMKNKELIPLAFFISVAATGATSFALYALKKTDVVIDRKRNPEPWEMVDPTQPQKLITINQQWKPVEELQKVRRATR
